# Reference: US20110217237A1 (AbbVie / Abbott, published 2011)
# Positions count from the first letter of the chain named. Like-named read-outs stand apart in the source and are kept apart here.
# B1: 32C7 chimeric antibody (antibody, human IgG1, V domains shown)
# VH: EVQLVESGGGLVQPGRSLKLSCLASGFPFSSVWMTWIRQAPGKGLEWIATITNSGASTYYSASVKGRFTISRDNVKSTLYLQMTSLGSEDTATYYCTRVGTSFDYWGQGVMVTVSS
# VL: DIQMTQSPASLSASLGETVTIECRASDDIYNGLAWFQQKPGKSPQLLIYDANTLHTGVPSRFSGSGSGTQFSLKINSLQSEDVASYFCQQFYDYPPYTFGAGTKLELKR
# notes: also called Chimera of 32C7
# B2: 14G1 chimeric antibody (antibody, human IgG1, V domains shown)
# VH: EVQLQQSGAELAKPGSSVKISCKASGYTFTNYDISWIKQTNGQGLEYLGYINTGSGGIYSNEKFKGKATLTVDKSSNTAFMQLSSLTPEDTAVYYCVREGNNFDHWGQGVKVTVSS
# VL: DTVMTQSPASMSTSVGERVTVNCKASQSVGTIVAWFQQKPGQSPKRLIYLATYRHTGVPDRFIGSGFGRDFTLTISNVEAEDLAVYYCLQYGSRPFTFGAGTKLEIKR
# notes: also called Chimera of 14G1
# B3: 38H12 chimeric antibody (antibody, human IgG1, V domains shown)
# VH: EVQLVESGGGLVQPGRSLKLSCAASGFTFSNYGMYWIRQAPTKGLQWVAFISHGGGITYYRDSVKGRFTISRDNAKSTLYLQMDSLRSEDTATYHCAALNWELGIDYWGQGVMVTVSS
# VL: DIQMTQSPASLSASLGETISIECRASEDIYSNLAWYQKKSGKSPQLLIYAANRLQDGVPSRFSGSGSGTQYSLKISGMQPEDEGDYFCLQGSKFPLTFGSGTKLEIKR
# notes: also called Chimera of 38H12
# B4: h1A11.1 (antibody, V domains shown)
# VH: EVQLVESGGGLVQPGGSLRLSCAASGFTFSNFPMAWVRQAPGKGLEWVATISSSDGTTYYRDSVKGRFTISRDNAKNSLYLQMNSLRAEDTAVYYCARGYYNSPFAYWGQGTLVTVSS
# VL: DIQMTQSPSSLSASVGDRVTITCRASEDIYSNLAWYQQKPGKAPKLLIYDTNNLADGVPSRFSGSGSGTDFTLTISSLQPEDFATYYCQQYNNYPPTFGQGTKLEIKR
# notes: humanized IgG; also called hu1A11.1; VH.1/VL.1 1A11
# B5: h1A11.3 (antibody, V domains shown)
# VH: B4 VH
# VL: B4 VL with Y49F
# notes: humanized IgG; also called VH.1/VL.1b 1A11
# B6: h1A11.4 (antibody, V domains shown)
# VH: B4 VH
# VL: EIVMTQSPATLSVSPGERATLSCRASEDIYSNLAWYQQKPGQSPRLLIFDTNNLADGVPARFSGSGSGTESTLTISSLQSEDFAVYFCQQYNNYPPTFGQGTKLEIKR
# notes: humanized IgG; also called VH.1/VL.2a 1A11
# B7: h1A11.8 (antibody, V domains shown)
# VH: B4 VH with N77S, A97S
# VL: B6 VL
# notes: humanized IgG; also called VH.1a/VL.2a 1A11
# Columns and labels:
# [1] = target: T1, human DLL4, full length, on cells (human, UniProt Q9NR61 27-685); test: FACS, DLL4 cells
# T1 construct: also called huDLL4 cells; human DLL4-293G
# mouse DLL4 on cells [2] = target: T2, mouse DLL4 on cells (mouse, UniProt Q9JI71 27-686); test: FACS, DLL4 cells
# T2 construct: whole, on cells; also called mouse DLL4-293G; mu DLL4 cells
# [3] = target: T1, human DLL4, full length, on cells; test: competition FACS: huNotch-1 to DLL4 cells
# Description: Notch blocking assay: Briefly, stable cell lines overexpressing cell-surface DLL4 were harvested from tissue culture flasks and re-suspended in phosphate buffered saline (PBS) containing 1% bovine serum albumin and 1 mM CaCl₂ (FACS buffer). HEK293G-DLL4 cells were dispensed into 96-well plate (v-bottom) at 1.5×10⁵ cells/well in FACS buffer. After spinning down cells and discarding the supernatant, 50 μL of purified IgG with appropriate dilution were added to each well, and incubated on ice at 4° C. for 60 minutes, followed by addition of 50 μL/well of Notch1-biotin at 0.2 μg/mL for human DLL4-293G or 2.0 μg/mL for mouse DLL4-293G (1.0 or 0.1 μg/mL final) for an additional 1 hour incubation ice at 4° C. After washing the cells two times with FACS buffer, 50 μL of R-phycoerythrin-conjugated streptavidin (1:150 dilution in FACS buffer) (Jackson ImmunoResearch, West Grove, Pa., Cat.#016-110-084) were added. Following an incubation on ice (4° C., 60 minutes), cells were washed three times and resuspended in FACS buffer. Fluorescence was measured using a Becton Dickinson FACSCalibur-HTS (Becton Dickinson, San Jose, Calif.). Data were analyzed using Graphpad Prism software, and IC₅₀ values were reported as the concentration of antibody to achieve 50% reduction of Notch1 bound to DLL4 expressing cells.
# [4] = target: T3, human DLL4 extracellular domain (human, UniProt Q9NR61 27-529); test: SPR (Biacore)
# T3 construct: purified recombinant ECD; biotin-labelled or 6xHis-tagged depending on the assay; also called huDLL4 ECD; hu DLL4 ECD
# Description: (§1) The BIACORE® surface plasmon resonance assay (Biacore, Inc., Piscataway, N.J., US) determines the affinity of antibodies with kinetic measurements of on-rate and off-rate constants. Binding of DLL4 antibodies to a purified recombinant DLL4 extracellular domain (ECD) was determined by surface plasmon resonance-based measurements with a Biacore® instrument (either a Biacore 2000, Biacore 3000, or Biacore T100; GE Healthcare, Piscataway, N.J., US) using running buffer HBS-EPB (10 mM HEPES [pH 7.4], 150 mM NaCl, 3 mM EDTA, 0.1 mg/ml BSA and 0.005% surfactant P20) at 25° C. For example, approximately 9000 RU of goat anti-human Fc specific polyclonal antibody (Thermo Fisher Scientific Inc., Rockford, Ill., US) diluted in 10 mM sodium acetate (pH 4.5) is directly immobilized across a CMS research grade biosensor chip using a standard amine coupling kit according to manufacturer's instructions and procedures at 25 μg/ml. Unreacted moieties on the biosensor surface were blocked with ethanolamine. For kinetic analysis, rate equations derived from the 1:1 Langmuir binding model were fitted simultaneously to multiple antigen injections (using global fit analysis) with the use of Scrubber 2 (BioLogic Software), Biacore Biaevaluation 4.0.1 software or Biacore T100 Evaluation software. Purified antibodies were diluted in running buffer for capture across goat anti-human Fc reaction surfaces. Antibodies to be captured as a ligand (1 μg/ml) were injected over reaction matrices at a flow rate of 10 μl/min. During the assay, all measurements were referenced against the capture surface alone (i.e., with no captured anti-DLL4 antibody). […] The equilibrium dissociation constant KD (M) of the reaction between antibodies and the target antigen was then calculated from the kinetic rate constants by the following formula: KD=Koff/Kₒₙ. Binding was recorded as a function of time and kinetic rate constants were calculated.
# [5] = target: T4, mouse DLL4 extracellular domain (mouse, UniProt Q9JI71 27-532); test: SPR (Biacore)
# T4 construct: extracellular domain; also called muDLL4 ECD; murine DLL4
# Description: as §1
# [6] = target: T3, human DLL4 extracellular domain; test: binding ELISA
# Description: (§2) Plates were then washed 3 times. 100 μl/well of recombinant rat/human chimeric or recombinant human anti-DLL4 antibodies were then added to the plate (0.00164-27 nM, 4-fold serial dilution in ELISA buffer=PBST, 10% Superblock (Pierce #37515)) for 1 hour at 25° C. with shaking and then washed again 3 times. Plates were incubated with goat anti-human HRP (Pierce #31412) (1:40,000 dilution in ELISA buffer, 100 μl/well) for 1 hour at 25° C. with shaking, then washed 3 times. After the final wash, plates were incubated with 100 μl/well ELISA substrate (Sigma #T8665). The reaction was stopped after 8 minutes at 25° C. with 100 μl/well 1N HCl and the absorbance was read at 450 nm. Data were analyzed using Graphpad Prism software, and EC50 values were reported.
# (§3) Purified variants were further characterized for their affinities for human, murine and cynomolgus DLL4 by binding ELISA (Example 1.2, Method 2), by Biacore (Example 1.1), and by Flow Cytometry (FACS). […] The humanized variants were then tested for their functionality with human and murine DLL4 by competition ELISA (Example 1.3) and by Notch reporter assay (Example 1.6).
# [7] = target: T5, cynomolgus monkey DLL4 extracellular domain (cynomolgus monkey); test: binding ELISA
# T5 construct: extracellular domain; also called cynoDLL4 ECD; Cyno DLL4
# Description: as §2, §3
# [8] = target: T4, mouse DLL4 extracellular domain; test: binding ELISA
# Description: as §2, §3
# [9] = target: T3, human DLL4 extracellular domain; test: SPR (Biacore); remark: listed apart in the source
# Outline: (§4)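 Purified anti-DLL4 antibodies (1 μg/ml) captured on immobilized goat anti-human Fc, with DLL4 ECD injected as analyte; HBS-EPB running buffer (pH 7.4), 25° C, referenced against capture-only surface. On/off rates from global 1:1 Langmuir fit; KD = Koff/Kon.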
# [10] = target: T5, cynomolgus monkey DLL4 extracellular …; test: SPR (Biacore)
# Outline: as §4
# [11] = target: T4, mouse DLL4 extracellular domain; test: SPR (Biacore); remark: listed apart in the source
# Outline: as §4
# [12] = target: T6, rat DLL4 extracellular domain (rat, UniProt D3ZHH1 28-530); test: SPR (Biacore)
# T6 construct: extracellular domain; also called ratDLL4 ECD
# Outline: as §4
# [13] = target: T1, human DLL4, full length, on cells; test: FACS, DLL4 cells; remark: listed apart in the source
# mouse DLL4 on cells [14] = target: T2, mouse DLL4 on cells; test: FACS, DLL4 cells; remark: listed apart in the source
# [15] = target: T1, human DLL4, full length, on cells; test: cell-based or functional assay
# [16] = target: T3, human DLL4 extracellular domain; test: competition ELISA vs Notch-1
# Description: (§5) Plates were then washed 3 times with wash buffer (PBS, 0.05% Tween-20) and blocked with 200 μl/well blocking buffer (D-PBS, 1% BSA, 1 mM CaCl₂, 0.05% Tween-20) for 1 hour at 25° C. While blocking, biotin labeled DLL4 extracellular domain (14 nM) was mixed with antibody (30 pM-66 nM, 3-fold serial dilution in blocking buffer) for 1 hour at 25° C. with shaking. Assay plates were washed after blocking, and incubated with DLL4/antibody mixtures (100 μl/well, 1 hour at 25° C. with shaking). Plates were washed again and 100 μl/well streptavidin conjugated with HRP (Fitzgerald #65R-S104PHRPx, diluted 1:5,000 in blocking buffer) was added for 1 hour at 25° C. with shaking. After a final wash, plates were developed using 100 μl/well substrate (TMB Sigma #T8665), and the reaction was stopped using 100 μl/well 1N HCl, and the absorbance was read at 450 nm. Data were analyzed using Graphpad Prism software and IC₅₀ values were reported as the concentration of antibody to achieve 50% reduction of DLL4 bound to Notch1.
# as §3
# [17] = target: T4, mouse DLL4 extracellular domain; test: competition ELISA vs Notch-1
# Description: as §5, §3
# T1 sequence (Q9NR61 27-685 limits assumed): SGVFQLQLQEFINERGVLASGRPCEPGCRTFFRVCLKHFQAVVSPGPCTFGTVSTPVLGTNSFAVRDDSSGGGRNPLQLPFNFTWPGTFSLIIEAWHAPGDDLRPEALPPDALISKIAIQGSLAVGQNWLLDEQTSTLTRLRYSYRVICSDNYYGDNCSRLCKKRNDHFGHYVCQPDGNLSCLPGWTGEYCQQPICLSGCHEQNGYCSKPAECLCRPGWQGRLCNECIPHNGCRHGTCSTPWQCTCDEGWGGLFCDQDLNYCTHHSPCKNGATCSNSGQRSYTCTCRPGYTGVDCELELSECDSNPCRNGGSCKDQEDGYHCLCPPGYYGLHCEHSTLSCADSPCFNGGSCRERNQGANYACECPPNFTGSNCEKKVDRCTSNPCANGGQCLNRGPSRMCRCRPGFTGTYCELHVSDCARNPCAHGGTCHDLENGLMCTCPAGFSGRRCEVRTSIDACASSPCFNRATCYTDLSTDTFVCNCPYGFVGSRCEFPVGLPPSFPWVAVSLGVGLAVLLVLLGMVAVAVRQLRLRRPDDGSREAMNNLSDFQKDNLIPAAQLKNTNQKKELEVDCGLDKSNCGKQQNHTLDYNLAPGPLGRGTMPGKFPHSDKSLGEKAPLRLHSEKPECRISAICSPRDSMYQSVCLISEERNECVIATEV
# T3 sequence (Q9NR61 27-529 limits assumed): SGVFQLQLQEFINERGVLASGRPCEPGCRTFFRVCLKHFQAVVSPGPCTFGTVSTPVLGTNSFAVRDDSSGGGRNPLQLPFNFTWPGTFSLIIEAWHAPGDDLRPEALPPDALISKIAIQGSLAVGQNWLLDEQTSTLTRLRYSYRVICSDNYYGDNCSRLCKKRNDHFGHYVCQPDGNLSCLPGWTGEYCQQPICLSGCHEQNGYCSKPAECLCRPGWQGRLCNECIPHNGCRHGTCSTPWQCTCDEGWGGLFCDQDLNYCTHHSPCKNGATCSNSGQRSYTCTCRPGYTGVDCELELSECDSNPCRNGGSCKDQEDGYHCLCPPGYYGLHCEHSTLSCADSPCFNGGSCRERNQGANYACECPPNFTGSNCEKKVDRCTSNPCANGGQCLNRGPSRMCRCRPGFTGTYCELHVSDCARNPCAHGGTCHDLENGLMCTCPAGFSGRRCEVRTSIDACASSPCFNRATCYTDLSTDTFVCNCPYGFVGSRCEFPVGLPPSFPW
# T2 sequence (Q9JI71 27-686): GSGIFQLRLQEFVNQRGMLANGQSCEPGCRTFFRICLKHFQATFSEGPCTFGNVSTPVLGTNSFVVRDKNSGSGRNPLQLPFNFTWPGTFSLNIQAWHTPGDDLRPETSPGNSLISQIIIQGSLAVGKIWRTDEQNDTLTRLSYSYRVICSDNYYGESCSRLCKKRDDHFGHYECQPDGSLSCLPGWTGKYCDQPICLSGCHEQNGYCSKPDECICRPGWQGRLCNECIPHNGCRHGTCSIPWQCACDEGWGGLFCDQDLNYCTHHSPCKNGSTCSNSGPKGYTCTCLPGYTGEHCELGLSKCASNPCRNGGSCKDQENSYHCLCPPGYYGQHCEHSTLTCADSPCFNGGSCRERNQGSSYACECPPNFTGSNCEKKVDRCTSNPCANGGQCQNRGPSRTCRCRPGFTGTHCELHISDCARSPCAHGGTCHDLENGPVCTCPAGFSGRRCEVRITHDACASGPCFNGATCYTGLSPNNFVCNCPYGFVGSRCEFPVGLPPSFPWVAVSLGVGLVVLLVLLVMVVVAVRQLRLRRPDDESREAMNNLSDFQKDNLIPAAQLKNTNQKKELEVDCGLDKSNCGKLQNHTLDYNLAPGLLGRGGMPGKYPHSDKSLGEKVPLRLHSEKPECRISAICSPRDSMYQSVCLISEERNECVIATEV
# T4 sequence (Q9JI71 27-532): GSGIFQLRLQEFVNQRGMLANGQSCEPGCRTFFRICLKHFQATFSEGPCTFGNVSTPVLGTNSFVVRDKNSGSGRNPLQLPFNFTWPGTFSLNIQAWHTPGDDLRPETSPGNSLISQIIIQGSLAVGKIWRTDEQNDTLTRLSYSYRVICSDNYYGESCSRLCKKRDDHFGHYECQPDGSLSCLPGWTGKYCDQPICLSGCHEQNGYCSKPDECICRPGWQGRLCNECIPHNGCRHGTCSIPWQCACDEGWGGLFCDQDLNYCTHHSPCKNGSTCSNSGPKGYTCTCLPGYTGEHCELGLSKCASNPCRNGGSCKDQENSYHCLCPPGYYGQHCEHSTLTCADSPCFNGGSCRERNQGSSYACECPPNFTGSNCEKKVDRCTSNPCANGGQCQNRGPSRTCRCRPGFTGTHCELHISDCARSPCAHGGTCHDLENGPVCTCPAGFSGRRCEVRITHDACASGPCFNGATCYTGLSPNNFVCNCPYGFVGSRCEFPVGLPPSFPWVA
# T6 sequence (D3ZHH1 28-530): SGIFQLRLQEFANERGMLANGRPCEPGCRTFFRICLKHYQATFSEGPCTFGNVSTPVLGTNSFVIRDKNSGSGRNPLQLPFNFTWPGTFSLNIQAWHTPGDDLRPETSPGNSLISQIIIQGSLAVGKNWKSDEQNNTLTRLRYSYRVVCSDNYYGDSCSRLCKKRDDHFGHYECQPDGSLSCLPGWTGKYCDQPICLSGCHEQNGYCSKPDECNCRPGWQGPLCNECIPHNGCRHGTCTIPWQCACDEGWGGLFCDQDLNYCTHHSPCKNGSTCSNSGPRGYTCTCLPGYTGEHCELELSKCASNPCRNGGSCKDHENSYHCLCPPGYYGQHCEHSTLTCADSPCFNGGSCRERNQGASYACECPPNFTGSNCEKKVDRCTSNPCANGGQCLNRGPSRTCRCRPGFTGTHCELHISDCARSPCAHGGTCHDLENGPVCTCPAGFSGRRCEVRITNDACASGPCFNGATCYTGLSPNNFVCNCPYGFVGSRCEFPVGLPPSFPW
binder,measurement,setting,value
B1,EC50,[1],3.71 nM
same,EC50,mouse DLL4 on cells [2],4.11 nM
B2,EC50,[1],0.994 nM
same,IC50,[3],4.11 nM
B3,EC50,[1],1.47 nM
same,IC50,[3],1.44 nM
B4,Kd,[4],15 nM
same,Kd,[5],38 nM
same,EC50,[6],0.08 nM
same,EC50,[7],0.13 nM
same,EC50,[8],0.09 nM
same,Kd,[9],13 nM
same,koff,[9],0.00212 s⁻¹
same,kon,[9],158000 M⁻¹ s⁻¹
same,Kd,[10],18 nM
same,koff,[10],0.00255 s⁻¹
same,kon,[10],144000 M⁻¹ s⁻¹
same,Kd,[11],32 nM
same,koff,[11],0.00498 s⁻¹
same,kon,[11],156000 M⁻¹ s⁻¹
same,binding result,[12],no binding
same,EC50,[13],3.13 nM
same,EC50,mouse DLL4 on cells [14],0.21 nM
same,"Reporter Assay (EC50, nM)",[15],2.53 nM
same,IC50,[16],0.4 nM
same,IC50,[17],1.3 nM
B5,Kd,[4],15 nM
same,Kd,[5],37 nM
same,EC50,[6],0.07 nM
same,EC50,[7],0.16 nM
same,EC50,[8],0.08 nM
same,EC50,[13],3.51 nM
same,EC50,mouse DLL4 on cells [14],0.24 nM
same,"Reporter Assay (EC50, nM)",[15],2.53 nM
same,IC50,[16],0.2 nM
same,IC50,[17],0.9 nM
B6,Kd,[4],16 nM
same,Kd,[5],39 nM
same,EC50,[6],0.08 nM
same,EC50,[7],0.17 nM
same,EC50,[8],0.09 nM
same,EC50,[13],3.61 nM
same,EC50,mouse DLL4 on cells [14],0.22 nM
same,"Reporter Assay (EC50, nM)",[15],3.28 nM
same,IC50,[16],0.3 nM
same,IC50,[17],0.9 nM
B7,Kd,[4],11 nM
same,Kd,[5],24 nM
same,EC50,[6],0.06 nM
same,EC50,[7],0.17 nM
same,EC50,[8],0.09 nM
same,EC50,[13],3.34 nM
same,EC50,mouse DLL4 on cells [14],0.18 nM
same,"Reporter Assay (EC50, nM)",[15],4.24 nM
same,IC50,[16],0.35 nM
same,IC50,[17],0.9 nM
